{"source": "paper PMC4047826", "target": "Dead streptavidin subunit with a polyaspartate insertion in the 3/4 loop (Dd) (Streptomyces avidinii) (UniProt P22629)", "test": "mixed refold, anion-exchange chromatography and SDS-PAGE without boiling; subunits refolded together from inclusion bodies into PBS; tetramers resolved on Mono-Q (20 mM Tris-HCl pH 8.0, 0-1 M NaCl gradient); peaks run on SDS-PAGE unboiled (tetramer) or boiled (subunit composition), Coomassie"}
{"substance": "Dead streptavidin subunit with a polyaspartate insertion in the 3/4 loop (Dd) (from UniProt P22629 37-163) (domain or fragment)", "values": [{"measurement": "stoichiometry N", "result": 4}]}
